Assay results from patent US12332249B1, “Biomolecule detection method using diffusion ordered spectroscopy” (KUWAIT UNIVERSITY, priority 2024, dated 2025).

Legend:
[1] = Hydrodynamic radius from DOSY diffusion coefficient by Stokes-Einstein equation; assay type: physicochemical; settings: obtained using Equation 2 (Stokes-Einstein)
Method: According to Stokes-Einstein equation mentioned below, the diffusion coefficient of solutes is directly linked to the hydrodynamic radius.
Where Rh is the hydrodynamic radius, kB is the Boltzmann constant, T is the temperature in K and η is the solution viscosity ([…] for D2O, and 30° C.) and D is the diffusion coefficient. The diffusion coefficient value is directly proportional to the temperature (T) and inversely proportional to the hydrodynamic radius. Thus, the hydrodynamic radius is related to the molecular weight, the higher the molecular weight, the larger the radius, the lower the diffusion and vice versa.

[2] = aqueous native avidin; cited from earlier work

avidin: protein with four identical subunits, each containing one binding site for biotin; from Sigma Aldrich
hydrodynamic radius (Rh) [1]: 22.02 Å | hydrodynamic radius by dynamic light scattering (DLS) [2]: 26.4±0.3 Å
